The record followed here is patent publication US20070020327A1.

The target of one experiment is HLA-A*0201 (purified HLA class I molecule) (human). As to the kind of experiment: competition with 125I-labelled standard peptide for purified HLA, gel filtration.
Details: not given
For orientation: Size exclusion chromatography separates by hydrodynamic size, large species first.
In the case of NLLHETDSA (modifications not checked) [PSM peptide … (position 3, 9 amino acids)], the binding affinity ratio (IC50 of standard peptide / IC50 of test peptide) is 0.0001.

In the case of LVHPQWVLTA (modifications not checked) [Kallikrein (hK2) peptide … (position 54, 10 amino acids)], the binding affinity ratio (IC50 of standard peptide / IC50 of test peptide) was 0.0001.

Consider MTKLRELSEL (modifications not checked) [PAP peptide … (position 232, 10 amino acids)], for which the binding affinity ratio (IC50 of standard peptide / IC50 of test peptide) was determined as 0.0002.

As for LVHPQWVLT (modifications not checked) [PSA peptide … (position 50, 9 amino acids)], the binding affinity ratio (IC50 of standard peptide / IC50 of test peptide) came out at 0.0001.

On to LVHPQWVLTA (modifications not checked) [PSA peptide … (position 50, 10 amino acids)], for which the binding affinity ratio (IC50 of standard peptide / IC50 of test peptide) worked out at 0.0001.

Take NAQLAGAKGV (modifications not checked) [PSM peptide … (position 216, 10 amino acids)]: the binding affinity ratio (IC50 of standard peptide / IC50 of test peptide) was determined as 0.0002.

Take NLNGAGDPLT (modifications not checked) [PSM peptide … (position 260, 10 amino acids)]: the binding affinity ratio (IC50 of standard peptide / IC50 of test peptide) is 0.0002.

As to LVHPQWVLTAA (modifications not checked) [Kallikrein (hK2) peptide … (position 54, 11 amino acids)], the binding affinity ratio (IC50 of standard peptide / IC50 of test peptide) stood at 0.0001.

Consider LVHPQWVLTAA (modifications not checked) [PSA peptide … (position 50, 11 amino acids)], for which the binding affinity ratio (IC50 of standard peptide / IC50 of test peptide) amounted to 0.0001.

Turning to MALDVYNGLL (modifications not checked) [PAP peptide … (position 298, 10 amino acids)], the binding affinity ratio (IC50 of standard peptide / IC50 of test peptide) stood at 0.001.

Take LVHPQWVLT (modifications not checked) [Kallikrein (hK2) peptide … (position 54, 9 amino acids)]: the binding affinity ratio (IC50 of standard peptide / IC50 of test peptide) worked out at 0.0001.

For the molecule MLLRLSEPAEL (modifications not checked) [PSA peptide … (position 118, 11 amino acids)], the binding affinity ratio (IC50 of standard peptide / IC50 of test peptide) came out at 0.14.

Still in this experiment, the particulars now being: remark: other sources report otherwise.
Consider LVLSIALSV (modifications not checked) [Kallikrein (hK2) peptide … (position 4, 9 amino acids)], for which the binding affinity ratio (IC50 of standard peptide / IC50 of test peptide) stood at 0.002.

The target in another experiment is HLA-A*0301 (human). Described as above.
Details: not given
As for KSLYESWTK (modifications not checked) [… (PSM, position 491)], the binding affinity ratio (IC50 of standard peptide / IC50 of test peptide) was determined as 0.4.

As to FSERLQDFDK (modifications not checked) [… (PSM, position 646, 10 amino acids)], the binding affinity ratio (IC50 of standard peptide / IC50 of test peptide) amounted to 0.0003.

LGEYIRKRYR (modifications not checked): the binding affinity ratio (IC50 of standard peptide / IC50 of test peptide) came to 0.0003.

In the case of LGIASGRAR (modifications not checked) [PSM 528 peptide …], the binding affinity ratio (IC50 of standard peptide / IC50 of test peptide) worked out at 0.0006.

For MSLLKNRFLR (modifications not checked) [… (PSA, position 99)], the binding affinity ratio (IC50 of standard peptide / IC50 of test peptide) is 0.007.

Staying with this experiment, now noted: remark: other sources report otherwise.
As to LGEYIRKRY (modifications not checked), the binding affinity ratio (IC50 of standard peptide / IC50 of test peptide) stood at 0.0002.

The next experiment has as its target HLA-A*0201 (human). In words: inhibition of 125I probe peptide binding to purified HLA, gel filtration; ratio = IC50 standard/IC50 test.
Details: not given
Take AAAETLSEV (modifications not checked) [… (PSM, position 741)]: the binding affinity ratio was 0.0002.

As to AALFPPEGV (modifications not checked) [… (PAP, position 121)], the binding affinity ratio is 0.0002.

Take AAPLILSRI (modifications not checked): the binding affinity ratio stood at 0.0002.

Consider AQVHPQKVT (modifications not checked) [… (PSA, position 181)], for which the binding affinity ratio was 0.0002.

Regarding AAPLILSRIV (modifications not checked), the binding affinity ratio is 0.0002.

On to ALPERPSL (modifications not checked) [ALPERPSL (PSA, position 231)], for which the binding affinity ratio was determined as 0.0002.

With ATARRPRWL (modifications not checked) [… (PSM, position 13)], the binding affinity ratio is 0.0002.

Consider ATLGKLSGL (modifications not checked) [… (PAP, position 189)], for which the binding affinity ratio came out at 0.0005.

For AAHCIRNKSV (modifications not checked) [… (PSA, position 59)], the binding affinity ratio worked out at 0.0002.

Take AASLSLGFL (modifications not checked) [… (PAP, position 11)]: the binding affinity ratio was found to be 0.0002.

Consider ALPERPSLYT (modifications not checked) [… (PSA, position 231)], for which the binding affinity ratio was found to be 0.0008.

As for ATEDTMTKL (modifications not checked) [… (PAP, position 227)], the binding affinity ratio came to 0.0002.

For a further experiment, the target named is HLA-A*0201 (human). In words: competition with 125I-labelled standard peptide for purified HLA, gel filtration; ratio = IC50 standard / IC50 test peptide.
Details: not given
As for QVLVASRGRA (modifications not checked) [PSA peptide …, position 35, 10 amino acids], the binding affinity ratio (ratio to standard peptide) amounted to 0.0001.

Regarding QVRGGMVFEL (modifications not checked) [PSM peptide …, position 578, 10 amino acids], the binding affinity ratio (ratio to standard peptide) turned out to be 0.0001.

For QVYIRSTDV (modifications not checked) [PAP peptide …, position 101, 9 amino acids], the binding affinity ratio (ratio to standard peptide) stood at 0.0002.

For the molecule QIPSYKKLI (modifications not checked) [PAP peptide …, position 276, 9 amino acids], the binding affinity ratio (ratio to standard peptide) came out at 0.0002.

In the case of QVHPQKVTKFM (modifications not checked) [PSA peptide …, position 182, 11 amino acids], the binding affinity ratio (ratio to standard peptide) worked out at 0.0001.

For the molecule QVWLGRHNL (modifications not checked) [Kallikrein (hK2) peptide …, position 72, 9 amino acids], the binding affinity ratio (ratio to standard peptide) was determined as 0.0001.

Consider PTQEPALGT (modifications not checked) [PSA peptide …, position 138, 9 amino acids], for which the binding affinity ratio (ratio to standard peptide) is 0.0001.

In the case of QMALDVYNGL (modifications not checked) [PAP peptide …, position 297, 10 amino acids], the binding affinity ratio (ratio to standard peptide) amounted to 0.0002.

Regarding QVSHSFPHPL (modifications not checked) [PSA peptide …, position 87, 10 amino acids], the binding affinity ratio (ratio to standard peptide) was 0.0001.

On to QAAAETLSEV (modifications not checked) [PSM peptide …, position 740, 10 amino acids], for which the binding affinity ratio (ratio to standard peptide) was determined as 0.0006.

As for QVLVASRGRAV (modifications not checked) [PSA peptide …, position 35, 11 amino acids], the binding affinity ratio (ratio to standard peptide) amounted to 0.0001.

Regarding PTQEPALGT (modifications not checked) [Kallikrein (hK2) peptide …, position 142, 9 amino acids], the binding affinity ratio (ratio to standard peptide) is 0.0001.

Consider QLAGAKGVIL (modifications not checked) [PSM peptide …, position 218, 10 amino acids], for which the binding affinity ratio (ratio to standard peptide) came out at 0.0006.

As for QLGMEQHYEL (modifications not checked) [PAP peptide …, position 72, 10 amino acids], the binding affinity ratio (ratio to standard peptide) worked out at 0.0003.

For QLAGAKGVI (modifications not checked) [PSM peptide …, position 218, 9 amino acids], the binding affinity ratio (ratio to standard peptide) came out at 0.0001.

Another experiment concerns the target HLA-A*0201 (human). In words: competition binding to purified HLA, 125I-labelled standard peptide, gel filtration; ratio = IC50 standard / IC50 test peptide.
Details: not given
As for DLPTQEPA (modifications not checked) [DLPTQEPA (PSA, position 136, 8 amino acids)], the binding affinity ratio came to 0.0001.

For the molecule EIASKFSERL (modifications not checked) [… (PSM, position 641, 10 amino acids)], the binding affinity ratio came to 0.0001.

As for DLHVISNDV (modifications not checked) [… (PSA, position 171, 9 amino acids)], the binding affinity ratio was found to be 0.0003.

Consider EIVRSFGTL (modifications not checked) [… (PSM, position 397, 9 amino acids)], for which the binding affinity ratio was 0.0002.

With DLFGIWSKV (modifications not checked) [… (PAP, position 201, 9 amino acids)], the binding affinity ratio was found to be 0.0002.

As for DAVKVMDLPT (modifications not checked) [… (PSA, position 130, 10 amino acids)], the binding affinity ratio was found to be 0.0001.

On to DMSLLKNRFL (modifications not checked) [… (PSA, position 98, 10 amino acids)], for which the binding affinity ratio worked out at 0.0001.

Consider EAVGLPSIPV (modifications not checked) [… (PSM, position 285, 10 amino acids)], for which the binding affinity ratio amounted to 0.0002.

For DLHVISNDVCA (modifications not checked) [… (PSA, position 171, 11 amino acids)], the binding affinity ratio is 0.0001.

Regarding DTMTKLREL (modifications not checked) [… (PAP, position 230, 9 amino acids)], the binding affinity ratio was found to be 0.0002.

Take DMKINCSGKI (modifications not checked) [… (PSM, position 191, 10 amino acids)]: the binding affinity ratio worked out at 0.0001.

Take DLVLSIAL (modifications not checked) [DLVLSIAL (Kallikrein, position 3, 8 amino acids)]: the binding affinity ratio came to 0.0001.

With DVCAQVHPQKV (modifications not checked) [… (PSA, position 178, 11 amino acids)], the binding affinity ratio came to 0.0001.

The same experiment, now with this note: remark: other sources report otherwise.
As to DLPTQEPAL (modifications not checked) [… (PSA, position 136, 9 amino acids)], the binding affinity ratio is 0.0003.

Take DLVLSIALSV (modifications not checked) [… (Kallikrein, position 3, 10 amino acids)]: the binding affinity ratio is 0.001.
